Measured values reported in patent US20130156764A1, “NEUTRALIZATION OF FLT3 LIGAND AS A LEUKEMIA THERAPY” (The Johns Hopkins University, priority 2010, published 2013).

Columns and labels:
[1] = test system: FLT3/ITD and FLT3/TKD in TF1 cells; assay: FL stimulation, FLT3 phosphorylation in TF1/ITD and TF1/TKD cells; assay type: cell-based; details: FL 15 minutes after serum starvation
Procedure: TF1 and BaF3 cells were transfected with pCINeo constructs containing either FLT3/ITD or FLT3/TKD mutation by electroporation (Bio-Rad, Hercules, Calif.). Stable transfectants were then selected by limiting dilution in 96-well plates with 1 mg/mL G418 (Invitrogen, Carlsbad, Calif.).
The possibility of further activation of FLT3 mutant receptors by exogenous FL was also tested in cell lines in which FL autocrine, paracrine, or intracrine stimulation of FLT3 receptor might exist. […] TF1 cells expressing FLT3 mutant receptors were starved for 16 hours in serum-free medium and washed once with PBS to deplete soluble FL (either produced by the cells or contained in the serum). These cells were then stimulated with exogenous FL for 15 minutes. More than 2-fold enhancement of FLT3 phosphorylation was detected in both TF1/ITD and TF1/TKD cell lines (FIG. 12A). […] To assess the functional effect of exogenous FL, TF1/ITD and TF1/TKD cells were cultured in serum-free medium in the absence and presence of FL for 48 hours. Apoptosis was assessed by Annexin V and 7AAD staining followed by FACS analysis. […] There was no change of cell cycle status in response to FL in these cells (data not shown).

FLT3/ITD in MV411 cells = target: T1, FLT3/ITD in MV411 cells (Homo sapiens, UniProt P36888, INS600HVDFREYEYD); assay: FL stimulation, FLT3 phosphorylation in MV411 cells; assay type: cell-based
T1 construct: endogenous in cells; host or cells: MV411
T1 sequence (P36888 with tags, fused parts or gaps INS600HVDFREYEYD): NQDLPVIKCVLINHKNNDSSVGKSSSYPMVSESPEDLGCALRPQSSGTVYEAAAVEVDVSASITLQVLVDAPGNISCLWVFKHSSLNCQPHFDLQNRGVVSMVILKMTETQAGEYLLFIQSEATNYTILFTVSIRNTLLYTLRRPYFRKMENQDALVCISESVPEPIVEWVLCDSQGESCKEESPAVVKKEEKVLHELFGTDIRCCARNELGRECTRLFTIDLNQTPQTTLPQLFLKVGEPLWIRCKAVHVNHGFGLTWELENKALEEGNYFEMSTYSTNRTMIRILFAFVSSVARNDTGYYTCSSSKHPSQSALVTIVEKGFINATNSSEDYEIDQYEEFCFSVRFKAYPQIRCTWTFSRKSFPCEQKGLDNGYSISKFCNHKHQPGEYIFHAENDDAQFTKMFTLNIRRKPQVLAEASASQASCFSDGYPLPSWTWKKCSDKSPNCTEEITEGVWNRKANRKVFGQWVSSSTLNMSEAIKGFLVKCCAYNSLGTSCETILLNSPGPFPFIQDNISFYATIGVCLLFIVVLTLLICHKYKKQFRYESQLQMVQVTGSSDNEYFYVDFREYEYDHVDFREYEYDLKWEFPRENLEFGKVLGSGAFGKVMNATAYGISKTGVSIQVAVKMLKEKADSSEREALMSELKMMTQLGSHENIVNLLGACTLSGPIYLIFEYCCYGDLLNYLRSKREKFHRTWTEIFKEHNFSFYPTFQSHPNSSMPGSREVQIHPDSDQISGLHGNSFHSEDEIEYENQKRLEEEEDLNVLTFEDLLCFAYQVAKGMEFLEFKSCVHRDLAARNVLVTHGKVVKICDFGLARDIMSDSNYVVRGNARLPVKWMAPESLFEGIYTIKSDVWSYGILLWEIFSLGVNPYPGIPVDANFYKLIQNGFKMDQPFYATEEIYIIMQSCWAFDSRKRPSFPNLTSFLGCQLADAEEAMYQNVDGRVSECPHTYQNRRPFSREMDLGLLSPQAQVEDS

MV411 cells = assay: Survival (MTT) of MV411 cells with FL; assay type: cell-based, human; details: MV411, serum-free, 4 days
Procedure: 2×10^4 cells in 100 μl serum-free medium were plated into triplicate wells of 96-well plates. Survival was assessed by MTT assay (Roche, Indianapolis, Ind.) and viable cell number counting by trypan blue (GIBCO, Rockville, Md.) exclusion according to the manufacturer's instructions.
The MV411 cell line is a human leukemia-derived cell line expressing a FLT3/ITD mutation and has lost the wild-type allele. […] MV411 cells express endogenous FL that might diminish the degree of the effect of exogenous FL on FLT3/ITD mutant receptor. To evaluate the effect of FL on the survival of MV411 cells, MV411 cells were cultured in serum-free medium in the presence and absence of FL for 4 days.

[2] = test system: FL−/− primary hematopoietic progenitor cells expressing FLT3/ITD or FLT3/TKD; assay: Colony-replating assay of FL−/− bone marrow progenitors transduced with FLT3 mutants, with FL; assay type: cell-based, mice
Text: Bone marrow was harvested from FL^−/− mice, lineage depleted (Lineage Cell Depletion kit; Militenyibi Biotec, Auburn Calif.), and transduced with EF1-ITD-UBC-GFP, EF1-TKD-UBC-GFP, or EF1-UBC-GFP lentivirus by 3 rounds of spin-infection on days 1, 2 and 3. The EF1-ITD-UBC-GFP vector was constructed by inserting full-length FLT3/ITD in EF1-UBC-GFP lentiviral vector. The EF1-TKD-UBC-GFP was constructed by inserting wtFLT3 into the EF1-UBC-GFP followed by mutagenesis of wtFLT3 to substitute nucleotide G of D835 with T resulting in an Aspartic acid to Tyrosine change (QuickChange Site-Directed Mutagenesis Kit; Stratagene, La Jolla, Calif.). GFP positive cells were then sorted by FACS. 10^3 cells were plated into triplicate 35 mm Petri dishes (Nunc) in 1 ml of Methocult M3434 (StemCell Technologies Inc., Vancouver) containing 50 ng/mL rm SCF, 10 ng/mL rm IL-3, 10 ng/mL rh IL-6, and 3 units/mL rh Erythropoietin. Cultures were incubated at 37° C. in a humidified atmosphere of 5% CO2, and colonies consisting of >35 cells were scored after 9-11 days. For the colony-replating assay all cells from the previous culture were collected and re-plated at 1×10^4 cells/plate in fresh methylcellulose medium. All cells were replated three times.
To evaluate the effect of FL stimulation on primary hematopoietic progenitor cells expressing FLT3 mutants, lineage negative progenitors were harvested from FL^−/− mice and transduced with FLT3/ITD-GFP, FLT3/TKD-GFP, or GFP control lentivirus. GFP-positive cells were selected by FACS, cultured in methylcellulose with and without FL, and the colony numbers were counted after 9 days.
After colonies were counted, all of the cells in each culture dish were harvested from the methylcellulose, washed and re-plated in fresh methylcellulose medium to examine their potential to form colonies upon secondary plating; this process was repeated for two more passages to determine the frequency of tertiary and quaternary colonies. […]

B1: FL: Recombinant human FL (fms-related tyrosine kinase ligand) purchased from PeproTech; SEQ ID NO: 1 (protein, listed as Homo sapiens)
chain: MTVLAPAWSPTTYLLLLLLLSSGLSGTQDCSFQHSPISSDFAVKIRELSDYLLQDYPVTVASNLQDEELCGGLWRLVLAQRWMERLKTVAGSKMQGLLERVNTEIHFVTKCAFQPPPSCLRFVQTNISRLLQETSEQLVALKPWITRQNFSRCLELQCQPDSSTLPPPWSPRPLEATAPTAPQPPLLLLLLLPVGLLLLAAAWCLHWQRTRRRTPRPGEQVPPVPSPQDLLLVEH
enhancement of FLT3 phosphorylation [1]: More than 2 fold
phosphorylation of FLT3 (FLT3/ITD in MV411 cells): increased phosphorylation
survival (MV411 cells): prolonged survival
number of first-generation colonies ([2]; BM cells transduced with FLT3 mutants, 9 days): slightly increased
re-plating activity upon serial passages ([2]; BM cells transduced with FLT3 mutants, cultured in presence of FL): retained their re-plating activity
colony size ([2]; FL−/− BM cells expressing FLT3 mutants stimulated with FL): significant increase in colony size
